Paper PMC3979375 (2014)

Tests used:
[1] = biological target: T1, GST-GUK, fusion protein of GST and the GUK domain of SAP102 (Rattus norvegicus (Rat), UniProt Q62936); assay: GST pulldown
T1 chain: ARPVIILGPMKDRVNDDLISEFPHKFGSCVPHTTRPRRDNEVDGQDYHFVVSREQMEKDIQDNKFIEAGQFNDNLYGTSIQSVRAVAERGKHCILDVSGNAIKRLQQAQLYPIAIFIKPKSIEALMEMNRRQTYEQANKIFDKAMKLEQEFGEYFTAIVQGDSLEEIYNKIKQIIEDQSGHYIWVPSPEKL

[2] = biological target: T2, GST-SH3-GUK, fusion protein of GST and the combined SH3-GUK domain of SAP102 (Rattus norvegicus (Rat), UniProt Q62936); assay: GST pulldown / amylose pulldown
T2 chain: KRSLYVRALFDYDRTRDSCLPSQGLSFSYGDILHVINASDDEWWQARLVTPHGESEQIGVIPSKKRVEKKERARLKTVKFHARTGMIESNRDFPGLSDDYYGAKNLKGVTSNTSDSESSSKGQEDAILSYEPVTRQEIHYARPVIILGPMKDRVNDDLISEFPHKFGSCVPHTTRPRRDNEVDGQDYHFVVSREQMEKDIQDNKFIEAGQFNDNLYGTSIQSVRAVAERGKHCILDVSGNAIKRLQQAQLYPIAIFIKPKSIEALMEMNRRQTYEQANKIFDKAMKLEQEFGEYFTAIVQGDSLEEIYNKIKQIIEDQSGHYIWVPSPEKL

[3] = biological target: T3, GST-SH3, fusion protein of GST and the SH3 domain of SAP102 (Rattus norvegicus (Rat), UniProt Q62936); assay: GST pulldown / amylose pulldown
T3 chain: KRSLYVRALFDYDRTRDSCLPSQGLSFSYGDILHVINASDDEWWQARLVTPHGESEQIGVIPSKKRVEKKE

Measured: binding result

B1: MBP-A2A-CT, fusion protein comprising maltose-binding protein and the carboxyl terminus of the A2A receptor (protein)
chain: RIREFRQTFRKIIRSHVLRQQEPFKAAGTSARVLAAHGSDGEQVSLRLNGHPPGVWANGSAPHPERRPNGYALGLVSGGSAQESQGNTGLPDVELLSHELKGVCPEPPGLDDPLAQDGAGVS
binds: all assays above
